T1: AtGL3 (F177I) (Arabidopsis thaliana, UniProt Q9FN69 1-637, F177I)
T1 sequence: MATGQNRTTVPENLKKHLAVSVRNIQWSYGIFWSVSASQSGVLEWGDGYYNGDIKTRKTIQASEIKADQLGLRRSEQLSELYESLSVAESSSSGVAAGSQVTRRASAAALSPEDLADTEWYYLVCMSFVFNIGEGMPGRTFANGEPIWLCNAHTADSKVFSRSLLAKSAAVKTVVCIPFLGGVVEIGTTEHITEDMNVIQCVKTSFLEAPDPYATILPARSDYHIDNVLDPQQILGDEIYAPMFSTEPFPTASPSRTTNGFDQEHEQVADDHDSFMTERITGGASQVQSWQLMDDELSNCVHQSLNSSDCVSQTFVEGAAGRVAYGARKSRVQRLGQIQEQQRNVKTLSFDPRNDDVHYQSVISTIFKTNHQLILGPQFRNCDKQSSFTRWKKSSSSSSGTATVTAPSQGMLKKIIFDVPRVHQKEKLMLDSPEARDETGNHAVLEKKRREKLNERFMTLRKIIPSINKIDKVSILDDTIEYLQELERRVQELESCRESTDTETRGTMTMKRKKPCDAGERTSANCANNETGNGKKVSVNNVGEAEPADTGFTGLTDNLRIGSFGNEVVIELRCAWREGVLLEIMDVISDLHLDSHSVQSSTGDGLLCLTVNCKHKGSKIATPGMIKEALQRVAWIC

B1: AtTT2 (natural protein)
chain: MGKRATTSVRREELNRGAWTDHEDKILRDYITTHGEGKWSTLPNQAGLKRCGKSCRLRWKNYLRPGIKRGNISSDEEELIIRLHNLLGNRWSLIAGRLPGRTDNEIKNHWNSNLRKRLPKTQTKQPKRIKHSTNNENNVCVIRTKAIRCSKTLLFSDLSLQKKSSTSPLPLKEQEMDQGGSSLMGDLEFDFDRIHSEFHFPDLMDFDGLDCGNVTSLVSSNEILGELVPAQGNLDLNRPFTSCHHRGDDEDWLRDFTC
B2: AtWER (natural protein)
chain: MRKKVSSSGDEGNNEYKKGLWTVEEDKILMDYVKAHGKGHWNRIAKKTGLKRCGKSCRLRWMNYLSPNVKRGNFTEQEEDLIIRLHKLLGNRWSLIAKRVPGRTDNQVKNYWNTHLSKKLGIKDQKTKQSNGDIVYQINLPNPTETSEETKISNIVDNNNILGDEIQEDHQGSNYLSSLWVHEDEFELSTLTNMMDFIDGHCF
B3: AtPAP2 (natural protein)
chain: MEGSSKGLRKGAWTAEEDSLLRLCIDKYGEGKWHQVPLRAGLNRCRKSCRLRWLNYLKPSIKRGRLSNDEVDLLLRLHKLLGNRWSLIAGRLPGRTANDVKNYWNTHLSKKHESSCCKSKMKKKNIISPPTTPVQKIGVFKPRPRSFSVNNGCSHLNGLPEVDLIPSCLGLKKNNVCENSITCNKDDEKDDFVNNLMNGDNMWLENLLGENQEADAIVPEATTAEHGATLAFDVEQLWSLFDGETVELD
B4: AtPAP1 (natural protein)
chain: MEGSSKGLRKGAWTTEEDSLLRQCINKYGEGKWHQVPVRAGLNRCRKSCRLRWLNYLKPSIKRGKLSSDEVDLLLRLHRLLGNRWSLIAGRLPGRTANDVKNYWNTHLSKKHEPCCKIKMKKRDITPIPTTPALKNNVYKPRPRSFTVNNDCNHLNAPPKVDVNPPCLGLNINNVCDNSIIYNKDKKKDQLVNNLIDGDNMWLEKFLEESQEVDILVPEATTTEKGDTLAFDVDQLWSLFDGETVKFD
B5: AtMYB61 (natural protein)
chain: not shown
B6: AtGL1 (natural protein)
chain: MRIRRRDEKENQEYKKGLWTVEEDNILMDYVLNHGTGQWNRIVRKTGLKRCGKSCRLRWMNYLSPNVNKGNFTEQEEDLIIRLHKLLGNRWSLIAKRVPGRTDNQVKNYWNTHLSKKLVGDYSSAVKTTGEDDDSPPSLFITAATPSSCHHQQENIYENIAKSFNGVVSASYEDKPKQELAQKDVLMATTNDPSHYYGNNALWVHDDDFELSSLVMMNFASGDVEYCL

These binders were tested against T1, AtGL3 (F177I) (assay: pull-down).
In the case of B1, the “percent reduction of binding against wild-type AtGL3” value (“percent reduction of binding” below) is reported as 30%.
In the case of B2, the “percent reduction of binding” value is reported as 30%.
For B3, the “percent reduction of binding” value was 30%.
B4 was tested, and the “percent reduction of binding” value was 30%.
With B5 the “percent reduction of binding” value was 30%.
B6 was tested, and the “percent reduction of binding” value was 30%.
